# Results as given in US20140274782A1, “AFFINITY REAGENTS AND METHODS FOR DETECTION, PURIFICATION, AND PROTEOMIC ANALYSIS OF METHYLATED PROTEINS” (The Board of Trustees of the Leland Stanford Junior …, priority 2013, published 2014).
# Legend:
# Test in all cases: ProtoArray methylated with G9a SET domain
# [1] = target: ACSL4, G9a-methylated (human) (UniProt O60488)
# [2] = target: MOBKL3, G9a-methylated (human) (UniProt Q9Y3A3)
# [3] = target: GFOD1, G9a-methylated (human) (UniProt Q9NXC2)
# [4] = target: SH3YL1 (clone MGC:12275), G9a-methylated (human) (UniProt Q96HL8)
# [5] = target: CTXN1, G9a-methylated (human) (UniProt P60606)
# [6] = target: KIFC1, G9a-methylated (human) (UniProt Q9BW19)
# [7] = target: PAEP, G9a-methylated (human) (UniProt P09466)
# [8] = target: RPL14, G9a-methylated (human) (UniProt P50914)
# [9] = target: PSMA8, G9a-methylated (human) (UniProt Q8TAA3)
# [10] = target: TGDS, G9a-methylated (human) (UniProt O95455)
# [11] = target: CNTD1, G9a-methylated (human) (UniProt Q8N815)
# [12] = target: RASSF4, G9a-methylated (human) (UniProt Q9H2L5)
# [13] = target: C10orf58, G9a-methylated (human) (UniProt Q9BRX8)
# [14] = target: LRRC20, G9a-methylated (human) (UniProt Q8TCA0)
# [15] = target: WDR45, G9a-methylated (human) (UniProt Q9Y484)
# [16] = target: SSR4, G9a-methylated (human) (UniProt P51571)
# [17] = target: PHF20L1, G9a-methylated (human) (UniProt A8MW92)
# [18] = target: CDK10, G9a-methylated (human) (UniProt Q15131)
# [19] = target: GGPS1, G9a-methylated (human) (UniProt O95749)
# [20] = target: LYPLAL1, G9a-methylated (human) (UniProt Q5VWZ2)
# [21] = target: FTH1 (hit 109), G9a-methylated (human) (UniProt P02794)
# [22] = target: GYPC, G9a-methylated (human) (UniProt P04921)
# [23] = target: TCTA, G9a-methylated (human) (UniProt P57738)
# [24] = target: TTC27, G9a-methylated (human) (UniProt Q6P3X3)
# [25] = target: DIRAS1, G9a-methylated (human) (UniProt O95057)
# [26] = target: CLDN15, G9a-methylated (human) (UniProt P56746)
# [27] = target: RAB7B, G9a-methylated (human) (UniProt Q96AH8)
# [28] = target: RDH11, G9a-methylated (human) (UniProt Q8TC12)
# [29] = target: ZRANB1, G9a-methylated (human) (UniProt Q9UGI0)
# [30] = target: SNFT, G9a-methylated (human) (UniProt Q9NR55)
# [31] = target: LARP6, G9a-methylated (human) (UniProt Q9BRS8)
# [32] = target: CUTC, G9a-methylated (human) (UniProt Q9NTM9)
# [33] = target: RAB33B, G9a-methylated (human) (UniProt Q9H082)
# [34] = target: HS3ST1, G9a-methylated (human) (UniProt O14792)
# [35] = target: UBE2S, G9a-methylated (human) (UniProt Q16763)
# [36] = target: MGC10433 (RNA-binding protein 42), G9a-methylated (human) (UniProt Q9BTD8)
# [37] = target: CMTM3, G9a-methylated (human) (UniProt Q96MX0)
# [38] = target: DYNC2LI1, G9a-methylated (human) (UniProt Q8TCX1)
# [39] = target: C10orf83, G9a-methylated (human) (UniProt Q8NDC4)
# [40] = target: SMYD3, G9a-methylated (human) (UniProt Q9H7B4)
# [41] = target: SCGB1A1, G9a-methylated (human) (UniProt P11684)
# [42] = target: MRPL21, G9a-methylated (human) (UniProt Q7Z2W9)
# [43] = target: FTH1 (hit 104), G9a-methylated (human) (UniProt P02794)
# [44] = target: CA13, G9a-methylated (human) (UniProt Q8N1Q1)
# [45] = target: C11orf73, G9a-methylated (human) (UniProt Q53FT3)
# HS3ST1, G9a-methylated (human), sequence (O14792 21-307 limits assumed): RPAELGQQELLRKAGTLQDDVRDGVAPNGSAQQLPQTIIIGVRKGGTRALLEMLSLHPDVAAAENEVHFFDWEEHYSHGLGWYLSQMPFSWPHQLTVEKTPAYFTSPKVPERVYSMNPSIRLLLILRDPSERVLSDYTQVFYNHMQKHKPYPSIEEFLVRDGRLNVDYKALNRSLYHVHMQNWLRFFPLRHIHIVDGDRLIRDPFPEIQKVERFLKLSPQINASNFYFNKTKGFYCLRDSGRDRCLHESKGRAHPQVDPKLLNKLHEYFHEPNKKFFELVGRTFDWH
# CUTC, G9a-methylated (human), sequence (Q9NTM9 whole entry): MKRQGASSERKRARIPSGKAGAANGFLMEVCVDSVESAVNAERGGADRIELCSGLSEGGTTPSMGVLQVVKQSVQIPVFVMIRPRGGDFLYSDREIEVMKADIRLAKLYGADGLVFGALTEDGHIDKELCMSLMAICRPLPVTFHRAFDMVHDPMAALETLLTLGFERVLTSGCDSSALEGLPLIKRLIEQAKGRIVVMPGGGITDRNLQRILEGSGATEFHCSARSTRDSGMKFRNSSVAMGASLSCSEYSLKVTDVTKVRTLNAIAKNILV
# ZRANB1, G9a-methylated (human), sequence (Q9UGI0 whole entry): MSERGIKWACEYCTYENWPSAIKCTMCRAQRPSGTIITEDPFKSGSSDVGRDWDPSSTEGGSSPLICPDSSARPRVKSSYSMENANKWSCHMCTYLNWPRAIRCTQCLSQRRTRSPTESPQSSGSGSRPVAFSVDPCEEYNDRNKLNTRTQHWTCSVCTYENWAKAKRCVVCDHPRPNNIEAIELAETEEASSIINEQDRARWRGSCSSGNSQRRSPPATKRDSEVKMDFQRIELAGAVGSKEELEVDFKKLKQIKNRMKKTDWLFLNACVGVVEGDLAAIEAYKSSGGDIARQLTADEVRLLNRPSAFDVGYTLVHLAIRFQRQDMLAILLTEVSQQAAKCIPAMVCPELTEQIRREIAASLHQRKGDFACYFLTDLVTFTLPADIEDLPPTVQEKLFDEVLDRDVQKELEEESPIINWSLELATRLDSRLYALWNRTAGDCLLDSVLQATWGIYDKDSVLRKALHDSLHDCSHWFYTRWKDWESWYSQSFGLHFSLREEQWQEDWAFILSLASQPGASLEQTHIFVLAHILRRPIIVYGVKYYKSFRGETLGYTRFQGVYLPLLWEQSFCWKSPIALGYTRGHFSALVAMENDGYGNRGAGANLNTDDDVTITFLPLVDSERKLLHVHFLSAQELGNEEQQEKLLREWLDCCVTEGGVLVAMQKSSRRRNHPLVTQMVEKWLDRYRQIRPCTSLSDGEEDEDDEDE
# UBE2S, G9a-methylated (human), sequence (Q16763 whole entry): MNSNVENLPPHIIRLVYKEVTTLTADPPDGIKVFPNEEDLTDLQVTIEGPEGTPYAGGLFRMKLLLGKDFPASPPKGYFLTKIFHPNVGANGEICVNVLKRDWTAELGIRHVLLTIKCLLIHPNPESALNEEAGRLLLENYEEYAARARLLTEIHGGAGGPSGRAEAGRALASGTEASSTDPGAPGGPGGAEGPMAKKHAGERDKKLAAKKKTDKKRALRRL
# PAEP, G9a-methylated (human), sequence (P09466 19-180 limits assumed): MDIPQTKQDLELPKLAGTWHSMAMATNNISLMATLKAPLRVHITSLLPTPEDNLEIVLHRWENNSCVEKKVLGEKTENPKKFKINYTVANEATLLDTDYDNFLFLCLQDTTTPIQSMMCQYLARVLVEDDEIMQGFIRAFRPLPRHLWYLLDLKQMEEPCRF
# LRRC20, G9a-methylated (human), sequence (Q8TCA0 whole entry): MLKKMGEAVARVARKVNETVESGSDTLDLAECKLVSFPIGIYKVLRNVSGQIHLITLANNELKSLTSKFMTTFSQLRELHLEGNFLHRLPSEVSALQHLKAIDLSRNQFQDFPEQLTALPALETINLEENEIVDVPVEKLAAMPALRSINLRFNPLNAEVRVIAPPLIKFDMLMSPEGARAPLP
# RAB33B, G9a-methylated (human), sequence (Q9H082 whole entry): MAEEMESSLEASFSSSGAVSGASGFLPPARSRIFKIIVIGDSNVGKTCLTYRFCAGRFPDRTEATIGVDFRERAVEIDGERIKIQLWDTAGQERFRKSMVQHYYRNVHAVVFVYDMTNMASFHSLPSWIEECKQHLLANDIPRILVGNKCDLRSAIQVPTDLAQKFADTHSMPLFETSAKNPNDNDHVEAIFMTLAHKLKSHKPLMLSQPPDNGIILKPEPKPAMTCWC
# CA13, G9a-methylated (human), sequence (Q8N1Q1 whole entry): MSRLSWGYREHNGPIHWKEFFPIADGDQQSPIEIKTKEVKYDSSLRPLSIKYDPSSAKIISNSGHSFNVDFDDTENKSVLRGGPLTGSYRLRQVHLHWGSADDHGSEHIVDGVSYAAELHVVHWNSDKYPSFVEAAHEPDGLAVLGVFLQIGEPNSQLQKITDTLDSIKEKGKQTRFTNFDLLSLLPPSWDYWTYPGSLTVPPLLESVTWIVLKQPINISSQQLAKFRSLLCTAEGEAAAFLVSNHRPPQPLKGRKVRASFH
# MGC10433 (RNA-binding protein 42), G9a-methylated (human), sequence (Q9BTD8 whole entry): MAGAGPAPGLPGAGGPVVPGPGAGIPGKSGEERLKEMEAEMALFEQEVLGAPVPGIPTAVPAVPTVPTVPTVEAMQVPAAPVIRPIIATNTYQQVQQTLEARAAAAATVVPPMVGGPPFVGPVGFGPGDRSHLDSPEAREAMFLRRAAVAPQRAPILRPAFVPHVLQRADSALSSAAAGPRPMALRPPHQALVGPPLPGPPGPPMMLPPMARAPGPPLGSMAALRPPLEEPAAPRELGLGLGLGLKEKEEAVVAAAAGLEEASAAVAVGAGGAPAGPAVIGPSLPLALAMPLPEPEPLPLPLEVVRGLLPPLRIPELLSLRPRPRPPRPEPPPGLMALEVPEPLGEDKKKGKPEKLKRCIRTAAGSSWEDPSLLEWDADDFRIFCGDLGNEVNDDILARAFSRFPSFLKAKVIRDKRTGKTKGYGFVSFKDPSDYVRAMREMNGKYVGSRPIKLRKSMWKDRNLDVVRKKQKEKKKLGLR
# CNTD1, G9a-methylated (human), sequence (Q8N815 whole entry): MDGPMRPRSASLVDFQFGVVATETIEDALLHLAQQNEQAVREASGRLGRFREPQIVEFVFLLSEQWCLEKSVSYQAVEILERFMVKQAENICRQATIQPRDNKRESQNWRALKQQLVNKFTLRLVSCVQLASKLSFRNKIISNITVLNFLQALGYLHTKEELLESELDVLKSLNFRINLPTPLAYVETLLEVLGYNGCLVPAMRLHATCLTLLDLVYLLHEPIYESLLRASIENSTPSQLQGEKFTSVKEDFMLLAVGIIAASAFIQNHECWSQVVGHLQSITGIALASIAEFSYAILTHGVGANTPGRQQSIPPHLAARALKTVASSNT
# RAB7B, G9a-methylated (human), sequence (Q96AH8 whole entry): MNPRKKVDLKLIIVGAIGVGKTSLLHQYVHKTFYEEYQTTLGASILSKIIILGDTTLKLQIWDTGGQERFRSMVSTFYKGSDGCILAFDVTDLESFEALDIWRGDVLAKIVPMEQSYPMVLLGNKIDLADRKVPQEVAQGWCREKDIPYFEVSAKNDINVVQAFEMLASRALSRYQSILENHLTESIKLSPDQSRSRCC
# CLDN15, G9a-methylated (human), sequence (P56746 whole entry): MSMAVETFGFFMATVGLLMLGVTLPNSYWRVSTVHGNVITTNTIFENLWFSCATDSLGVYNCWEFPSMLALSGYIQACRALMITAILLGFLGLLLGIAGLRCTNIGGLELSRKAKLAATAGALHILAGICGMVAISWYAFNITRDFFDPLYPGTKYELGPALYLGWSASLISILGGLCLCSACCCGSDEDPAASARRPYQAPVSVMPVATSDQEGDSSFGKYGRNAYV
# DIRAS1, G9a-methylated (human), sequence (O95057 whole entry): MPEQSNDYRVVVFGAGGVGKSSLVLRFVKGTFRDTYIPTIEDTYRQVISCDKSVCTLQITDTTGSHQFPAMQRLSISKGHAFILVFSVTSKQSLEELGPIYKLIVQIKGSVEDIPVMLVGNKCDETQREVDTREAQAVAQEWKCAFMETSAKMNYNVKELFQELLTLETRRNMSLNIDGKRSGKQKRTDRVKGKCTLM
# CMTM3, G9a-methylated (human), sequence (Q96MX0 whole entry): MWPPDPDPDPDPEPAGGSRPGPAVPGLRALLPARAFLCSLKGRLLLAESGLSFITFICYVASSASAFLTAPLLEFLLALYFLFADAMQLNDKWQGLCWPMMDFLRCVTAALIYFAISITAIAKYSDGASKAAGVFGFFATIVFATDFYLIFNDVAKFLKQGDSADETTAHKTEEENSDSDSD
# MOBKL3, G9a-methylated (human), sequence (Q9Y3A3 whole entry): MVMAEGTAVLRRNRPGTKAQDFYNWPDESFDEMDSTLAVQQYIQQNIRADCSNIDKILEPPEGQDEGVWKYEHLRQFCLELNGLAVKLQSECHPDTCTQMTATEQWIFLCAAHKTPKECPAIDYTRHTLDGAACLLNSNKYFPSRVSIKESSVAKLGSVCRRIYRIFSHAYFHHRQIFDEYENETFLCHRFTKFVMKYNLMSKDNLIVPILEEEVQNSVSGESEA
# GGPS1, G9a-methylated (human), sequence (O95749 whole entry): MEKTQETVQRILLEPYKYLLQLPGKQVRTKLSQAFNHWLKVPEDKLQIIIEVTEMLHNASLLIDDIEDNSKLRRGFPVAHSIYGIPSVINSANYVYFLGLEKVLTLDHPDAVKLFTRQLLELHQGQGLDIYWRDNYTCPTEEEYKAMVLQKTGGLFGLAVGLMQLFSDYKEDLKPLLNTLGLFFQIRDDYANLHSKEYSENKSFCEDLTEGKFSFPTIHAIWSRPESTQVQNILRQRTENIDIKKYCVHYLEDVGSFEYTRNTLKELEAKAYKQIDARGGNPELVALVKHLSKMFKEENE
# SNFT, G9a-methylated (human), sequence (Q9NR55 whole entry): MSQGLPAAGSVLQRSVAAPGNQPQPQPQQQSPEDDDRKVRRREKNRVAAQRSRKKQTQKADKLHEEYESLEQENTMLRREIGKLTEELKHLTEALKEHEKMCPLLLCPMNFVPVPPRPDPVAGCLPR
# FTH1 (hit 109), G9a-methylated (human), sequence (P02794 whole entry): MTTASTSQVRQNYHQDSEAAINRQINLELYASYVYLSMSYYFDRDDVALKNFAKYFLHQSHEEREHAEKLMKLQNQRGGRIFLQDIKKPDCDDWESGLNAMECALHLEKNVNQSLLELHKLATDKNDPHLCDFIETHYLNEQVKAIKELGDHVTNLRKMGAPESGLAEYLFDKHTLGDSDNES
substance,measurement,setting,value
3× Flag-3×MBT (designed binder),G9a Average SNR,[1],13.5
same,G9a Average SNR,[2],13.6
same,G9a Average SNR,[3],16.4
same,G9a Average SNR,[4],12.9
same,G9a Average SNR,[5],19.7
same,G9a Average SNR,[6],63.2
same,G9a Average SNR,[7],17.5
same,G9a Average SNR,[8],18.4
same,G9a Average SNR,[9],13.1
same,G9a Average SNR,[10],13.6
same,G9a Average SNR,[11],12.7
same,G9a Average SNR,[12],15.7
same,G9a Average SNR,[13],17
same,G9a Average SNR,[14],32.3
same,G9a Average SNR,[15],16.6
same,G9a Average SNR,[16],14.4
same,G9a Average SNR,[17],21.5
same,G9a Average SNR,[18],13.6
same,G9a Average SNR,[19],12.3
same,G9a Average SNR,[20],15.7
same,G9a Average SNR,[21],38.7
same,G9a Average SNR,[22],13.4
same,G9a Average SNR,[23],16.4
same,G9a Average SNR,[24],20.7
same,G9a Average SNR,[25],29.2
same,G9a Average SNR,[26],25
same,G9a Average SNR,[27],12.7
same,G9a Average SNR,[28],26.6
same,G9a Average SNR,[29],13.2
same,G9a Average SNR,[30],18.1
same,G9a Average SNR,[31],15.6
same,G9a Average SNR,[32],13.6
same,G9a Average SNR,[33],20.2
same,G9a Average SNR,[34],13.3
same,G9a Average SNR,[35],25
same,G9a Average SNR,[36],14.1
same,G9a Average SNR,[37],14.1
same,G9a Average SNR,[38],11.6
same,G9a Average SNR,[39],15.4
same,G9a Average SNR,[40],17.6
same,G9a Average SNR,[41],19.6
same,G9a Average SNR,[42],23.3
same,G9a Average SNR,[43],30.4
same,G9a Average SNR,[44],13
same,G9a Average SNR,[45],13.5
